Measured values reported in patent US7645449B2, “Sensitizing cells for apoptosis by selectively blocking cytokines” (priority 2003, dated 2010).

Experiments:
[1] = test system: RT112 bladder carcinoma cells; assay: MTS viability of RT112 cells: chemotherapy- and anti-CD95-induced apoptosis; format: cell-based, human
Description: Anticancer treatment using cytotoxic drugs mediates cell death by activating the intracellular apoptotic program. To determine whether IL-4 was able to inhibit apoptosis induced by chemotherapeutic drugs, bladder tumor cells (RT112) were pretreated for two days with different concentrations of IL-4 and subsequently exposed to camptothecin or etoposide.
Human LNCAP prostate cancer cell line and human MDA-MB-231 breast cancer cell line were obtained from the American Type Culture Collection (ATCC, Manassas, Va.). Human RT112 bladder carcinoma cell line was kindly provided by Dr. M. Cippitelli (Regina Elena Cancer Institute, Rome, Italy). Cells were grown in RPMI 1640 (Life Technologies Inc., Grand Island, N.Y.) containing 10% heat inactivated fetal bovine serum supplemented with L-Glutamine 2 mM and 100 units/ml Penicillin-Streptomycin. Cells were kept in 5% CO2 atmosphere and routinely passaged when 80-85% confluent. […] Camptothecin, cisplatin, daunorubicine, etoposide and vincristine were purchased from Sigma-Aldrich Inc. (Sain Louis, Mo.) and resuspended in DMSO (cisplatin, camptothecin and etoposide) or in H2O (daunorubicine and vincristine). Anti-CD95 agonistic antibody (clone CH11) was purchased from Upstate Biotechnology (Lake Placid, N.Y.). Monoclonal antibody anti-Bcl-XL (H5, mouse) was from Santa Cruz (Santa Cruz, Calif.), antibody anti-cFlip/FLAME-1 (NF6, mouse) was kindly provided by Dr. P.H. Krammer (German Cancer Reseach Center, Heidelberg, Germany). Antibody anti β-actin (goat) was purchased from Oncogene (Boston, Mass.):
Cell viability was determined using the CellTiter 96® AQueous One Solution Cell Proliferation Assay (Promega, Madison, Wis.), according to the manufacturer's instructions. The assay is based on reduction of 3-(4,5-dimethylthiazol-2-yl)-5-(3-carboxymethoxyphenyl)-2-(4-sulfophenyl)-2H-tetrazolium, inner salt (MTS) to a colored formazan product that is measured spectrophotometrically. Cells were seeded in 96-well tissue culture plates and incubated at 37° C. in a 5% CO2 incubator overnight. […] After two days cells were treated for 10 hours with chemotherapeutic drugs or anti-CD95, then 20 μl of MTS were added to each well. After 3 hours of incubation at 37° C. with the MTS reagent, the plates were read on a Multilabel Counter (Victor2, Wallac, Perkin-Ehmer Inc., Norwalk, Conn.) and dye absorbance was measured at 490 nm.
The percentage of apoptotic cells was derived from the percentage of viable cells that was directly calculated from the values of the MTS assay. The percentage of protection from apoptosis was determined as: % protection=100%−X
X was calculated with the formule: (C1−C2):100=(S1−S2):X where:
C1 is the viability of untreated control cells, C2 is the viability of control cells treated with the apoptotic stimulus, S1 and S2 are the viability of cells preincubated with cytoldnes or transduced with anti-apoptotic genes, untreated (S1) or treated (S2) with the apoptotic stimuli.
(A) Percentage of viable RT112 bladder carcinoma cells pre-treated for two days with increasing doses of IL-4 (5, 10, 20, 50 and 100 ng/ml) which were maintained also during incubation with chemotherapeutic drugs and exposed to 50 ng/ml camptothecin of 7 μM etoposide. […] Cell viability was determined after 24 hours using the MTS assay as described in Materials and Methods and the percentage of protection from cell death was calculated as described in Materials and Methods. The results shown are the mean ±s.d. of four independent experiments.
When the cytokine is removed by washing the percentage of protection is downmodulated.
(E) IL-4 prevents anti CD95-induced apoptosis. […] Successively, cells were incubated with 30 ng/ml anti-CD95 agonistic antibody in standard medium, Control cells (−) were stimulated with anti-CD95 in the absence of cytokine pre-treatment. The results shown are the mean ±s.d. of four independent experiments.

[2] = test system: primary breast carcinoma cells; assay: Bcl-XL expression and chemosensitivity of primary breast carcinoma cells cultivated with or without IL-4; format: cell-based, human; settings: 6 days of in vitro culture in the presence of IL-4
Description: To confirm that IL-4-induced upregulation of Bcl-XL is able to protect epithelial breast cells from apoptosis, freshly isolated normal breast epithelial cells were exposed to IL-4 and analyzed Bcl-XL expression and sensitivity to a panel of chemotherapeutic drugs commonly used to treat breast cancer. […] To confirm that in vivo exposure to IL-4 is responsible for high Bcl-XL expression and resistance to chemotherapy in breast cancer, Bcl-XL expression and sensitivity to apoptosis of primary breast carcinoma cells cultivated in the presence or absence of IL-4 was measured Freshly isolated breast cancer cells expressed high levels of Bcl-XL and were scarcely sensitive to chemotherapeutic drugs (FIGS. 14C and D). […] Thus, in vivo IL-4 production promotes the survival of breast cancer cells. […]
Cell pellets were washed twice with cold PBS and lysed on ice for 30 minutes with 1% NP40 lysis buffer (20 mM Tris-HCl pH 7.2, 200 mM NaCl, 1% NP40) in the presence of 1 mM phenylmethylsulphonyl fluoride (PMSF) and 2 μg/ml each of aprotinin, leupeptin and pepstatin. […] Lysate concentration was determined using the Bio-Rad protein assay (Bio-Rad Laboratories, Richmond, Calif.). […]

B1: IL-4: human recombinant IL-4 (protein, UniProt P05112 25-153, looked up)
Interleukin-4: HKCDITLQEIIKTLNSLTEQKTLCTELTVTDIFAASKNTTEKETFCRAATVLRQFYSHHEKDTRCLGATAQQFHRHKQLIRFLKRLDRNLWGLAGLNSCPVKEANQSTLENFLERLKTIMREKYSKCSS
B1 was tested, and the “protection from chemotherapy-induced apoptosis at 20 ng/ml” value ([1]; 20 ng/ml IL-4 for two days, camptothecin or etoposide, viability after 24 hours) was “able to protect cells from chemotherapy-induced apoptosis”, the “time course of protection from etoposide-induced cell death” value ([1]; 7 μM etoposide, IL-4 maintained in the culture medium) was “protected from etoposide-induced cell death from day 2 to day 4” and the “protective effect after shorter pretreatment” value ([1]; 24 hours of IL-4 pretreatment) was “already consistent”. For the same molecule, the “protection from chemotherapy-induced apoptosis at higher concentrations” value ([1]; IL-4 higher than 20 ng/ml (50, 100 ng/ml)) was “protective effect is maintained”, the “protection of RT112 cells from drug-induced death” value ([1]; pretreated two days with IL-4, then camptothecin or etoposide) was “significantly protected from drug-induced death” and the “CD95-induced apoptosis in bladder cancer cells” value ([1]; two days IL-4 pretreatment, 30 ng/ml anti-CD95 agonistic antibody) was “significantly inhibit CD95-induced apoptosis”. The “Bcl-XL levels in primary breast cancer cells” value [2] was “maintained high Bcl-XL levels” and the “sensitivity of primary breast cancer cells to chemotherapeutic drugs” value [2] was “low sensitivity to chemotherapeutic drugs”.
